Source: PMC10960864, “Bidirectional ATP-driven transport of cobalamin by the mycobacterial ABC transporter BacA” (Nature Communications, 2024)

Test system: Nc1ncnc2c1ncn2[C@@H]1O[C@H](COP(=O)(O)OP(=O)(O)OP(=O)(O)O)[C@@H](O)[C@H]1O
Assay: purified protein
Details: import direction, Mg-ATP varied, 65 µM cyanocobalamin, pH 7.5, 30 °C, 1 mM DTT

**Q.** BacAMm (Mycobacterium marinum M) was tested. Which Km did it give?
**A.** 250 µM
